Measurements published in the MegaScale stability set (Tsuboyama et al. 2023).

B1: HEEH_KT_rd6_3546 (parent)
chain: SEEDKEREHWERLNRDFELRVLDTTFIAHHAEEVIKLLRWLEK

Variants of: B1
Assay: folding stability dG (cDNA display proteolysis); higher = more stable
Conditions: PBS, room temperature

Folding stability dG [kcal/mol]: each site, then its substitutions
D4: W 1.45, A 1.38, K 1.41, Q 1.42, E 1.56, I 1.4, V 1.3, Y 1.37, F 1.46, R 1.39, T 1.42, P 1.38, C 2.16, M 1.42, G 1.28, S 1.29, N 1.44, L 1.53, H 1.41
R7: F 1.13, Y 1.21, A 1.53, G 1.47, S 1.3, M 1.46, K 1.19, H 1.18, V 1.28, D 1.25, E 1.3, T 1.26, N 1.26, I 1.36, Q 1.34, P 1.19, W 1.39, L 1.26
E6: A 1.49, L 1.55, H 1.43, F 1.73, N 1.38, V 1.56, S 1.47, M 1.54, W 1.8, R 1.38, I 1.62, D 0.956, T 1.56, C 1.7, Y 1.55, Q 1.48, G 1.35, K 1.18, P 1.19
L13: Y 1.77, N 1.43, Q 0.972, A 1.17, K 1.4, I 1.53, V 1.39, E 0.952, G 1.16, H 1.15, R 1.88, M 1.36, D 1.24, S 1.26, W 1.75, P 1.14, F 1.7, T 1.52
K5: H 1.4, R 1.23, Q 1.11, S 1.08, D 1.41, P 1.28, V 1.46, T 1.21, G 1.27, L 1.15, A 1.39, F 1.44, E 1.39, W 1.67, Y 1.35, N 1.29, M 1.21, I 1.17
E3: N 1.51, P 1.3, T 1.19, H 1.36, F 1.63, I 1.56, M 1.33, W 1.65, L 1.61, G 1.28, D 1.49, K 1.4, Q 1.41, R 1.48, Y 1.39, S 1.45, V 1.29, A 1.22
R20: G 1.29, A 1.04, L 1.93, E 0.819, K 1.36, I 1.99, C 2.37, H 1.39, D 1.18, F 2.21
R12: Q 1.26, S 1.43, L 1.55, C 1.6, T 1.53, P 1.08, D 1.65, M 1.64, W 2.2, G 1.16, Y 1.66, E 1.17, A 1.32, N 1.35, K 1.29, V 1.37, H 1.15, I 1.41, F 1.76
E8: R 1.34, F 1.96, Y 1.28, W 2.04, I 1.43, A 1.4, M 1.73, K 1.32, V 1.26, H 1.15, D 1.17, L 1.47, T 1.58, N 1.48, G 1.5, P 1.09, S 1.86, Q 1.34
N14: S 1.96, Y 2.2, R 2.11, Q 1.67, W 2.69, D 1.1, C 2.44, L 2.39, E 1.2, I 2.2, P 1.8, A 1.84, F 2.4, M 2.22, G 1.55, V 2.21, H 1.58, T 1.8, K 1.72
E11: T 1.91, S 2.16, N 1.59, I 2.17, R 2.11, L 2.11, P 1.71, D 1.55, W 2.37, V 1.52, G 1.76, Q 1.73, K 1.69, M 1.9, A 2.07, F 2.43, H 1.79, Y 2.17
W10: L 1.36, M 1.05, E 1.05, D 1.25, A 1.03, H 1.09, P 0.979, K 1.22, T 1.07, C 1.79, G 1.12, Q 1.25, I 1.2, F 1.32, V 1.03, S 1.17, N 1.15, R 1.02, Y 1.09
E18: P 1.52, T 2.19, N 1.5, H 1.79, Y 2.4, R 1.87, L 2.33, V 2.17, I 2.34, S 1.83, D 1.42, F 2.66, A 1.79, K 1.62, W 2.88, M 2.15, G 1.36, Q 1.72
E2: M 1.43, Y 1.45, N 1.38, Q 1.62, R 1.61, T 1.48, V 1.45, P 1.34, S 1.31, W 1.57
H9: E 1.2, Y 1.65, F 1.91, W 2.17, S 1.38, N 1.23, P 1.1, Q 1.35, K 1.34, V 1.47, R 1.31, L 1.53, D 1.2, C 2.53, G 1.42, M 1.64, A 1.42, T 1.5, I 1.86
L19: N 0.808, R 1.21, H 0.971, Q 0.821, V 1.05, A 0.896, Y 1.14, T 0.795, E 0.795, I 1.39, W 1.49, P 0.862, D 0.732, G 0.617, S 0.796, K 0.521, F 1.42, M 0.996, C 2.03
F17: N 0.718, D 0.606, L 1.14, K 0.798, H 0.86, V 0.83, I 1.1, G 0.579, E 0.738, M 1.01, Y 1.31, T 0.782, R 0.912, S 0.873, P 0.774, Q 0.444, W 1.55, A 0.719
R15: Q 1.08, K 1.25, T 1.4, M 1.75, H 1.42, L 2.07, W 2.45, G 1.29, I 2.41, V 2.08, A 1.55, E 1.23, P 1.11, C 2.36, D 1.22, F 2.37, Y 1.84, N 1.26, S 1.25
D16: R 1.76, F 1.96, Y 2.13, E 1.43, H 1.93, V 2.04, A 1.81, G 1.47, I 1.98, P 1.94, S 1.57, N 1.59, Q 1.6, K 1.38, M 1.73, L 2.02, T 2.31, W 2.27
